In patent US20240392003A1 (NUMAB THERAPEUTICS, published 2024):
Read-outs that look alike come from different tables or passages of the source.

Assays:
[1] = target: T1, recombinant human ROR1 protein (Fc-Tag, Acro Biosystems RO1-H5250) (human, UniProt Q01973 30-406); assay: SPR; hROR1-Fc immobilized
T1 construct: Bought; also called hROR1; recombinant human ROR1 ECD; not shown: Fc tag

[2] = target: T2, recombinant human CD3 epsilon extra-cellular domain protein (His-Tag, SinoBiological) (human, UniProt P07766 23-126); assay: SPR; hCD3ε immobilized, two-state fit
T2 construct: extracellular domain; Bought; also called hCD3ε; human CD3ε; not shown: His tag

[3] = target: T2, recombinant human CD3 epsilon …; assay: SPR; hCD3ε immobilized, two-state fit (ka1)
[4] = target: T2, recombinant human CD3 epsilon …; assay: SPR; hCD3ε immobilized, two-state fit (kd1)
Procedure: Binding kinetics (including affinity) of the nine selected scMATCH3 molecules to recombinant human CD3 epsilon extra-cellular domain protein (hCD3ε; His-Tag, SinoBiological) were determined by SPR analysis on a T200 device (Biacore, Cytiva). Recombinant hCD3ε molecules were covalently immobilized to a carboxymethylated dextran surface (CM5 sensorchip; Biacore, Cytiva) and a titration series of each MATCH3 molecule was injected as analyte. After each analyte injection-cycle, every flow channel on the sensor chip was regenerated (Glycine, pH 2.0 and 3 M MgCl₂), and a new concentration of MATCH3 molecule was injected. […] The apparent dissociation (kₐ₁) and association (kₐ₁) rate constants, the second reaction constants (kₐ₂ and kd) and the apparent dissociation equilibrium constant (KD) were calculated with the Biacore analysis software (Biacore Evaluation software Version 3.2, Cytiva) using a two-state binding model, and quality of the fits was monitored based on relative Chi2. The binding level was calculated as the maximum stability binding achieved normalized to the theoretical Rmax.

[5] = target: T3, human ROR1 expressed on cells (human, UniProt Q01973 30-937); assay: flow cytometry, MDA-MB-231 cells, 1 mg/ml hSA
T3 construct: whole, on cells; One molecule for cell-surface ROR1 on all cell lines; the cell line is named under assay; also called hROR1; plasma membrane human ROR1
Procedure: After incubation at 4° C. for 1 h in presence of 1 mg/mi of human serum albumin (hSA), plates were washed and incubated with specific detection antibodies.
The binding of anti-ROR1xhSAxCD3 scMATCH3 molecules to plasma membrane human ROR1 was assessed by flow cytometry.

[6] = target: T3, human ROR1 expressed on cells; assay: flow cytometry, gated on CLL patient tumor cells (ROR1 about 8k/cell), titration in the presence of human serum albumin, labelled framework-specific secondary reagent
[7] = target: T4, recombinant Cynomolgus monkey CD3ε (His-Tag; SinoBiological) (Cynomolgus monkey, UniProt Q95LI5 22-117); assay: SPR; cCD3ε immobilized, two-state fit
T4 construct: Bought; also called cCD3ε; not shown: His tag
T4 sequence (looked up): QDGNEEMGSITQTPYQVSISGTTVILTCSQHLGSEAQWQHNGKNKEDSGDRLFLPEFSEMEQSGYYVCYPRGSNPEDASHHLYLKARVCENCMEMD

[8] = target: T2, recombinant human CD3 epsilon …; assay: SPR; hCD3ε immobilized, two-state fit; remark: listed apart in the source
Procedure: (§1) The apparent dissociation (kd1) and association (kₐ₁) rate constants, the second reaction constants (kₐ₂ and kd2) and the apparent dissociation equilibrium constant (KD) were calculated with the Biacore analysis software (Biacore Evaluation software Version 3.2, Cytiva) using a two-state binding model and quality of the fits was monitored based on relative Chi2. The binding level was calculated as the maximum stability binding achieved normalized to the theoretical Rmax.

[9] = target: T4, recombinant Cynomolgus monkey CD3ε …; assay: SPR; cCD3ε immobilized, two-state fit (Ka1)
Procedure: (§2) Recombinant hCD3ε molecules were covalently immobilized to a carboxymethylated dextran surface (CM5 sensorchip; Biacore, Cytiva) and a titration series of PR0726 was injected as analyte. After each analyte injection-cycle, every flow channel on the sensor chip was regenerated (Glycine, pH 2.0), and a new concentration of PR0726 was injected.
(§3) The binding kinetics to hCD3ε was measured using a multi-cycle kinetic assay, with eight analyte concentrations ranging from 0.7 to 90 nM, 1:2 diluted in running buffer (HEPES buffered saline, 0.05% Tween-20, pH 7.5; Bioconcept). The apparent dissociation (kd1) and association (kₐ₁) rate constants, the second reaction constants (kₐ₂ and kd2) and the apparent dissociation equilibrium constant (KD) were calculated with the Biacore analysis software (Biacore Evaluation software Version 3.2, Cytiva) using a two-state binding model and quality of the fits was monitored based on relative Chi2. The binding level was calculated as the maximum stability binding achieved normalized to the theoretical Rmax.
(§4) Binding kinetics to recombinant Cynomolgus monkey CD3ε (cCD3ε; His-Tag; SinoBiological) were measured as mentioned above for hCD3ε, with the exception that cCD3εwas used instead of hCD3ε.

[10] = target: T4, recombinant Cynomolgus monkey CD3ε …; assay: SPR; cCD3ε immobilized, two-state fit (Kd1)
Procedure: as §2, §3, §4

[11] = target: T2, recombinant human CD3 epsilon …; assay: SPR; hCD3ε immobilized, two-state fit (Ka1)
Procedure: as §1

[12] = target: T2, recombinant human CD3 epsilon …; assay: SPR; hCD3ε immobilized, two-state fit (Kd1)
Procedure: as §1

[13] = target: T3, human ROR1 expressed on cells; assay: cell-based or functional assay
[14] = target: T3, human ROR1 expressed on cells; assay: cell-based or functional assay; remark: listed apart in the source
[15] = target: T3, human ROR1 expressed on cells; assay: cell-based or functional assay; remark: listed apart in the source
[16] = target: T1, recombinant human ROR1 protein (Fc-Tag, …); assay: SPR; hROR1-Fc immobilized (Avidity)
Procedure: Recombinant human ROR1 molecules (Fc-Tag, Acro Biosystems RO1-H5250) were covalently immobilized to a carboxymethylated dextran surface (CM5 sensorchip; Biacore, Cytiva) and a titration series of each MATCH4 molecule was injected as analyte. After each analyte injection-cycle, every flow channel on the sensor chip was regenerated (Glycine, pH 2.0 and 3 M MgCl₂), and a new concentration of MATCH4 molecule was injected.
(§5) For both assays, the apparent dissociation (kd) and association (kₐ) rate constants and the apparent dissociation equilibrium constant (KD) were calculated with the Biacore analysis software (Biacore Evaluation software Version 3.2, Cytiva) using a one-to-one Langmuir binding model and quality of the fits was monitored based on Chi2 and U-value, which are measures for the quality of the curve fitting. The binding level was calculated as the maximum stability binding achieved normalized to the theoretical Rmax.

[17] = target: T2, recombinant human CD3 epsilon …; assay: SPR; hCD3ε immobilized, two-state fit; remark: listed apart in the source
Procedure: (§6) Binding kinetics (including affinity) of the four MATCH4 molecules to recombinant human CD3 epsilon extra-cellular domain protein (hCD3ε; His-Tag, SinoBiological) were determined by SPR analysis on a T200 device (Biacore, Cytiva). Recombinant hCD3ε molecules were covalently immobilized to a carboxymethylated dextran surface (CM5 sensorchip; Biacore, Cytiva) and a titration series of each MATCH4 molecule was injected as analyte. After each analyte injection-cycle, every flow channel on the sensor chip was regenerated (Glycine, pH 2.0 and 3 M MgCl₂), and a new concentration of MATCH4 molecule was injected. […] The apparent dissociation (kd1) and association (kₐ₁) rate constants, the second reaction constants (kₐ₂ and kd2) and the apparent dissociation equilibrium constant (KD) were calculated with the Biacore analysis software (Biacore Evaluation software Version 3.2, Cytiva) using a two-state binding model, and the quality of the fits was monitored based on relative Chi2. The binding level was calculated as the maximum stability binding achieved normalized to the theoretical Rmax.

[18] = target: T2, recombinant human CD3 epsilon …; assay: SPR; hCD3ε immobilized, two-state fit (Ka1); remark: listed apart in the source
Procedure: as §6

[19] = target: T2, recombinant human CD3 epsilon …; assay: SPR; hCD3ε immobilized, two-state fit (kd1); remark: listed apart in the source
Procedure: as §6

[20] = target: T3, human ROR1 expressed on cells; assay: flow cytometry, MDA-MB-231 cells, 1 mg/ml hSA; remark: listed apart in the source
Procedure: After incubation at 4° C. for 1 h in presence of 1 mg/ml of human serum albumin (hSA), plates were washed and incubated with specific detection antibodies.
The binding of MATCH4 molecules to plasma membrane-based human ROR1 was assessed by flow cytometry. The calculated EC₅₀, rel.

[21] = target: T5, human ROR1 (Peprotech 160-054) (human, UniProt Q01973 30-406); assay: SPR; MATCH4 captured, hROR1 analyte (Affinity)
T5 construct: Bought, used as analyte; also called hROR1; recombinant human ROR1 protein
Procedure: Binding affinity without avidity was determined by using a proprietary anti-framework rabbit IgG (rlgG21-57-20-B11) immobilized to a carboxymethylated dextran surface (CM5 sensorchip; Biacore, Cytiva) to capture the MATCH4 molecules on the surface. A titration series of human ROR1 (Peprotech 160-054) molecule was injected as analyte. After each capture-analyte injection cycle, every flow channel on the sensor chip was regenerated (3 M MgCl₂), and a MATCH4 molecule was captured again followed by a different concentration of human ROR1. The binding kinetics to human ROR1 were measured using a multi-cycle kinetic assay, with ten analyte concentrations ranging from 0.088 to 90 nM, 1:2 diluted in running buffer (HEPES buffered saline, 0.05% Tween-20, pH 7.5; Bioconcept).
as §5

[22] = target: T3, human ROR1 expressed on cells; assay: flow cytometry, JIMT-1 cells (ROR1-positive)
[23] = target: T1, recombinant human ROR1 protein (Fc-Tag, …); assay: SPR; hROR1-Fc immobilized; remark: listed apart in the source
Procedure: Binding kinetics (including affinity) of the scFvs to recombinant human ROR1 protein (Fc-Tag, Acro Biosystems) were determined by SPR analysis on a T200 device (Biacore, Cytiva). Recombinant human ROR1 molecules were covalently immobilized to a carboxylmethylated dextran surface (CM5 sensorchip; Biacore, Cytiva) and a titration series of each scFv was injected as analyte. After each analyte injection-cycle, every flow channel on the sensor chip was regenerated (Glycine, pH 2.0), and a new concentration of scFv was injected. The binding kinetics to human ROR1 was measured using a multi-cycle kinetic assay, with nine analyte concentrations ranging from 0.005 to 30 nM, diluted in running buffer (HEPES buffered saline, 0.05% Tween-20, pH 7.5; Bloconcept). The apparent dissociation (kd) and association (kₐ) rate constants and the apparent dissociation equilibrium constant (KD) were calculated with the Biacore analysis software (Biacore Evaluation software version 3.2, Cytiva) using a one-to-one Langmuir binding model and quality of the fits was monitored based on Chi2 and U-value, which are measures for the quality of the curve fitting. The binding level was calculated as the maximum stability binding achieved normalized to the theoretical Rₘₐₓ.

[24] = target: T3, human ROR1 expressed on cells; assay: flow cytometry, MDA-MB-231 cells
Procedure: After three washing steps with PBS-EB, cells were centrifuged and washing buffer was aspirated. […] After incubation at 4° C. for 1 h, plates were washed three times using 100 μl of PBS-EB. Cells incubated with scFvs were re-suspended with 100 μl of Numab's framework specific detection antibody (PRO2268, rabbit 1 gG) and incubated at 4° C. for 30 min. Following a washing step, PRO2268 was subsequentially detected by the addition of anti-rabbit IgG antibody labeled with APC at a concentration of 2 μg/ml and incubated for 1 h at 4° C. […] Next, cells were washed again three times using 100 μl of PBS-EB per well. […] The fluorescence intensity of the APC channel was recorded for each sample and the geometric mean of the fluorescence intensity (MFI) was calculated. The data were single-referenced (subtracted for fluorescence intensity found on cells incubated with detection reagents only), and subsequent concentration-response curves were fitted using a 4-PL fit (GraphPad Prism software).
Plasma membrane binding of optimized scFvs to human ROR1-expressing MDA-MB-231 cells by flow cytometry was performed as described above. […] After incubation at 4° C. for 1 h, plates were washed and incubated with specific detection antibodies.

[25] = target: T3, human ROR1 expressed on cells; assay: flow cytometry, MDA-MB-231 cells; remark: listed apart in the source
Procedure: Cell suspensions were centrifuged for 5 min at 400×g and 100 μl of cell suspensions (50,000 cells) diluted in PBS-EB (1×DPBS, 2% FCS H.I., 2 mM EDTA) were added to designated wells in a non-binding 96-wel plate. After three washing steps with PBS-EB, cells were centrifuged and washing buffer was aspirated. […] After incubation at 4° C. for 1 h, plates were washed three times using 100 μl of PBS-EB. Cells incubated with scFvs were re-suspended with 100 μl of Numab's framework specific detection antibody (PRO2268, rabbit 1 gG) and incubated at 4° C. for 30 min. Following a washing step, PRO2268 was subsequentially detected by the addition of anti-rabbit IgG antibody labeled with APC at a concentration of 2 μg/ml and incubated for 1 h at 4° C. […] Next, cells were washed again three times using 100 μl of PBS-EB per well. […] The fluorescence intensity of the APC channel was recorded for each sample and the geometric mean of the fluorescence intensity (MFI) was calculated. The data were single-referenced (subtracted for fluorescence intensity found on cells incubated with detection reagents only), and subsequent concentration-response curves were fitted using a 4-PL fit (GraphPad Prism software).
Plasma membrane binding of optimized scFvs to human ROR1-expressing MDA-MB-231 cells by flow cytometry was performed as described above.

B1: PRO2668 (bispecific antibody)
chain: AFELTQSPSSLSASVGDRVTITCQASESINSRLAWYQQKPGQPPKLLIYDASDLTSGVPSRFSGSGSGTDFTLTISSLQPEDFATYYCQGYGGSSTTTFGCGTKLTVLGGGGGSEVQLVESGGGRVQPGGSLRLSCAASGFSLSSYDMSWVRQAPGKGLAWIGASYASGPTYYASWAKGRFTISRDNSKNTVYLQMNSLRAEDTATYFCARGGWTGTSHSNIWGQGTQVTVSSGGGGSGGGGSGGGGSGGGGSDIQMTQSPSSLSASVGDRVTITCQSSQSVFSNNYLAWFQQKPGQSPKRLIYSASTLASGVPSRFSGSGSGTDFTLTISSLQPEDFATYYCLGSYACSSADCYVFGTGTKVTVLGGGGGSEVQLVESGGGRVQPGGSLRLSCAASGFSLSSYAMNWVRQAPGKCLEWIGHINAGDIAYYATWAKGRFTISRDNSKNTVYLQMNSLRAEDTATYFCARGAGGFSTGPFKLWGQGTQVTVSSGGGGSGGGGSAQQLTQSPSSLSASVGDRVTITCQASQNVWNNNYLSWFQQKPGKPPKLLIVTASTLASGVSSRFSGSGSGTDFTLTISSLQPEDFATYYCAGGFSGEIRAFGCGTKVTVLGGGGGSGGGGSGGGGSGGGGSQSQLVESGGGRVQPGGSLRLSCAVSGLSLSRNAMSWVRQAPGKCLEWIGIILTSGSTYYASWAKGRFTISKDNSKNTVYLQMNSLRAEDTATYFCVRGIASSSLKSFWGQGTQVTVSS
notes: trispecific anti-ROR1 x hSA x CD3 scMATCH3, single chain, optimized variant of PRO2510; also called 19-04-A10-sc06(RTQ) scDb-o/28-21-D09-sc04 (RTQ) scDb-i/55-39-G02-sc05(RTQ)-scFv; RPO2668
Kd [1]: 0.28 nM | koff [1]: 0.00056 s⁻¹ | kon [1]: 2e+06 M⁻¹ s⁻¹ | Kd [2]: 1.8 nM | ka2 [2]: 0.0049 s⁻¹ | kd2 [2]: 0.0023 s⁻¹ | kon [3]: 2.5e+06 M⁻¹ s⁻¹ | koff [4]: 0.0047 s⁻¹ | EC50 [5]: 0.74 nM | Rel. maximum binding (MFIscMATCH3/MFIPRO2213) [5]: 2.89 | EC50 (read off the curve) [6]: ~1 nM

B2: PRO726 (scFv, V domains shown)
VH: EVQLVESGGGLVQPGGSLRLSCAASGFSLSSYDMSWVRQAPGKGLAWIGASYASGPTYYASWAKGRFTISRDNSKNTVYLQMNSLRAEDTATYFCARGGWTGTSHSNIWGQGTLVTVSS
VL: DIQMTQSPSSLSASVGDRVTITCQSSQSVFSNNYLAWFQQKPGQSPKRLIYSASTLASGVPSRFSGSGSGTDFTLTISSLQPEDFATYYCLGSYACSSADCYVFGTGTKVTVLG
notes: scFv; also called 28-21-D09-sc04; anti-CD3 scFv
Kd [7]: 4.8 nM | Kd [8]: 5.3 nM | kon [9]: 820000 M⁻¹ s⁻¹ | koff [10]: 0.0062 s⁻¹ | kon [11]: 650000 M⁻¹ s⁻¹ | koff [12]: 0.0055 s⁻¹

B3: PRO2592 (bispecific antibody)
chain 1: AQQLTQSPSSLSASVGDRVTITCQASQNVWNNNYLSWFQQKPGKPPKLLIVTASTLASGVSSRFSGSGSGTDFTLTISSLQPEDFATYYCAGGFSGEIRAFGCGTKVTVLGGGGGSGGGGSGGGGSGGGGSQSQLVESGGGLVQPGGSLRLSCAVSGIDLSRNAMSWVRQAPGKCLEWIGIILTSGSTYYASWAKGRFTISKTSTTLDLQMNSLRAEDTAVYFCVRGIASSSLKSFWGQGTLVTVSSGGGGSGGGGSAFELTQSPSSLSASVGDRVTITCQASESINSRLAWYQQKPGQPPKLLIYDASDLTSGVPSRFSGSGSGTDFTLTISSLQPEDFATYYCQGYGGSSTTTFGCGTKLTVLGGGSGGSDIQMTQSPSSLSASVGDRVTITCQSSQSVFSNNYLAWFQQKPGQSPKRLIYSASTLASGVPSRFSGSGSGTDFTLTISSLQPEDFATYYCLGSYACSSADCYVFGTGTKVTVLG
chain 2: AQQLTQSPSSLSASVGDRVTITCQASQNVWNNNYLSWFQQKPGKPPKLLIVTASTLASGVSSRFSGSGSGTDFTLTISSLQPEDFATYYCAGGFSGEIRAFGCGTKVTVLGGGGGSGGGGSGGGGSGGGGSQSQLVESGGGLVQPGGSLRLSCAVSGIDLSRNAMSWVRQAPGKCLEWIGIILTSGSTYYASWAKGRFTISKTSTTLDLQMNSLRAEDTAVYFCVRGIASSSLKSFWGQGTLVTVSSGGGGSGGGGSEVQLVESGGGLVQPGGSLRLSCAASGFSLSSYDMSWVRQAPGKGLAWIGASYASGPTYYASWAKGRFTISRDNSKNTVYLQMNSLRAEDTATYFCARGGWTGTSHSNIWGQGTLVTVSSGGGSGGGSGGGSGEVQLVESGGGLVQPGGSLRLSCAASGFSLSSYAMNWVRQAPGKCLEWIGHINAGDIAYYATWAKGRFTISRDNSKNTVYLQMNSLRAEDTAVYFCARGAGGFSTGPFKLWGQGTLVTVSS
notes: heterodimeric MATCH4, bivalent for ROR1, monovalent for CD3 and hSA; also called MATCH4 with 55-39-G02-sc06 / 19-04-A10-sc06 / 28-21-D09-sc04 / 55-39-G02-sc06
Avg. % max. lysis (JIMT-1) [13]: 24.9% | Avg. % max. lysis (MDA-MB-231) [13]: 47.1% | Avg. % max. lysis (SKOV3) [13]: 44.7% | Avg. EC50 (nM) CD8 T cell act. (MDA-MB-231) [13]: 0.011 nM | Avg. EC50 (nM) CD8 T cell act. (SKOV3) [13]: 1.6 nM | Avg. EC50 (nM) Cytotoxicity (JIMT-1) [13]: 3.3 nM | Avg. EC50 (nM) Cytotoxicity (MDA-MB-231) [13]: 0.008 nM | Avg. EC50 (nM) Cytotoxicity (SKOV3) [13]: 5.37 nM | Avg. % max. CD8 T cell act. (JIMT-1) [14]: 15.5% | Avg. % max. CD8 T cell act. (MDA-MB-231) [14]: 67% | Avg. % max. CD8 T cell act. (SKOV3) [14]: 54.7% | Avg. EC50 (nM) CD8 T cell act. (JIMT-1) [14]: 9.8 nM | Avg. EC50 (nM) CD8 T cell act. (MDA-MB-231) [14]: 0.011 nM | Avg. EC50 (nM) CD8 T cell act. (SKOV3) [14]: 1.6 nM | Avg. % max. CD4 T cell act. (JIMT-1) [15]: 23% | Avg. % max. CD4 T cell act. (MDA-MB-231) [15]: 79% | Avg. % max. CD4 T cell act. (SKOV3) [15]: 75% | Avg. EC50 (nM) CD4 T cell act. (JIMT-1) [15]: 9.1 nM | Avg. EC50 (nM) CD4 T cell act. (MDA-MB-231) [15]: 0.005 nM | Avg. EC50 (nM) CD4 T cell act. (SKOV3) [15]: 0.76 nM | Kd [16]: 0.0287 nM | koff [16]: 5.69e-05 s⁻¹ | kon [16]: 1.98e+06 M⁻¹ s⁻¹ | Ka2 [17]: 0.0036 s⁻¹ | Kd [17]: 6.3 nM | Kd2 [17]: 0.0036 s⁻¹ | kon [18]: 430000 M⁻¹ s⁻¹ | koff [19]: 0.0055 s⁻¹ | EC50 [20]: 0.72 nM | Rel. maximum binding (MFIMATCH4/MFIPRO2213) [20]: 2.41 | rel. EC50 (EC50, PRO2213/EC50, MATCH4) [20]: 0.94 | Kd [21]: 5 nM | koff [21]: 0.00049 s⁻¹ | kon [21]: 98000 M⁻¹ s⁻¹ | EC50 (read off the curve) [22]: ~0.5 nM

B4: PRO2271 (scFv, V domains shown)
VH: QSQLVESGGGLVQPGGSLRLSCAVSGIDLSRNAMSWVRQAPGKGLEWIGIILTSGSTYYASWAKGRFTISKTSTTLDLQMNSLRAEDTAVYFCVRGIASSSLKSFWGQGTLVTVSS
VL: AQQLTQSPSSLSASVGDRVTITCQASQNVWNNNYLSWFQQKPGKPPKLLIVTASTLASGVSSRFSGSGSGTDFTLTISSLQPEDFATYYCAGGFSGEIRAFGTGTKVTVLG
notes: scFv, T cell score optimized variant of PRO2062; also called 55-39-G02-sc03
Kd [23]: 0.364 nM | koff [23]: 0.000578 s⁻¹ | kon [23]: 1.59e+06 M⁻¹ s⁻¹ | fold lower apparent binding affinity than PRO2062 [24]: ~2 fold | EC50 [25]: 0.63 nM | Rel. maximum binding (MFIscFv/MFIPRO2213) [25]: 0.87
